According to patent US20180072770A1, “Influenza Virus Binding Peptides” (priority 2014, published 2018):
No end group written: not given here.

How the values were obtained:
[1] = biological target: hemagglutinin of influenza A virus A/Mute swan/Germany/R901/06 K3141 H7N1 (influenza A virus A/Mute swan/Germany/R901/06 K3141 H7N1)
[2] = biological target: hemagglutinin of influenza A virus A/Panama/2007/1999 H3N2 (influenza A virus A/Panama/2007/1999 H3N2); assay: cell-based or functional assay
[3] = biological target: hemagglutinin of influenza A virus A/Mute swan/Germany/R901/06 K3141 H7N1 (influenza A virus A/Mute swan/Germany/R901/06 K3141 H7N1); assay: cell-based or functional assay

Row | Binder | IC50 [1] [µM] | Mean Ki(HAI), hemagglutination inhibition assay, human erythrocytes [2] [µM] | Hemagglutination inhibition (IC50, HAI) [3] [µM] | Mean Ki(HAI), hemagglutination inhibition assay, turkey erythrocytes [3] [µM]
1 | KKKKFYDYDVFY (not fully specified (C-terminus)) [reference peptide with SEQ ID NO:1 (FYDYDVFY), N-terminal (Lys)4, C-terminal amide] | 40 | 16 | 47 | 62.5
2 | KKKKFYGYDVFF (not fully specified (C-terminus)) [peptide with SEQ ID NO:28, N-terminal (Lys)4, C-terminal amide] | 30 | 0.1 | 23 | 36.5
